Assay results as given in US20210292392A1.

How the values were obtained:
Experiment in all cases: cell-based or functional assay
[1] = target: full length S protein of SARS-CoV-2 (on pseudovirus) (SARS-CoV-2) (UniProt P0DTC2)
[2] = target: spike protein of live SARS-CoV-2 (SARS-CoV-2) (UniProt P0DTC2)
[3] = target: spike (S) protein of live SARS-CoV-2 (SARS-CoV-2) (UniProt P0DTC2)
[4] = target: spike protein on live SARS-CoV-2 (SARS-CoV-2) (UniProt P0DTC2)

P2C-1F11 (antibody)
Pseudovirus IC50 [1]: 0.0286 µg/mL
Pseudovirus IC80 [1]: 0.119 µg/mL
Live virus IC50 [2]: 0.0323 µg/mL
Live virus IC80 [2]: 0.178 µg/mL
Live virus IC50 [3]: 0.0323 µg/mL
Live virus IC80 [3]: 0.178 µg/mL
IC50, live SARS-CoV-2 focus reduction neutralization test (FRNT) [4]: 0.03 µg/mL
